Fold diff data for one molecule are collected here from patent publication US20220332804A1 (CSL INNOVATION, published 2022).

Common to all, as to assay: SPR; KD relative to WT C2;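 also: biacore SPR at 37 °C, anti-C2 mAbs captured on an anti-human IgG chip, alanine or serine C2 surface mutants tested, KD from 1:1 fit compared with wild-type C2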
Assay [1] addresses T1, human C2 N424A (human, UniProt P06681 21-752).
T1 sequence: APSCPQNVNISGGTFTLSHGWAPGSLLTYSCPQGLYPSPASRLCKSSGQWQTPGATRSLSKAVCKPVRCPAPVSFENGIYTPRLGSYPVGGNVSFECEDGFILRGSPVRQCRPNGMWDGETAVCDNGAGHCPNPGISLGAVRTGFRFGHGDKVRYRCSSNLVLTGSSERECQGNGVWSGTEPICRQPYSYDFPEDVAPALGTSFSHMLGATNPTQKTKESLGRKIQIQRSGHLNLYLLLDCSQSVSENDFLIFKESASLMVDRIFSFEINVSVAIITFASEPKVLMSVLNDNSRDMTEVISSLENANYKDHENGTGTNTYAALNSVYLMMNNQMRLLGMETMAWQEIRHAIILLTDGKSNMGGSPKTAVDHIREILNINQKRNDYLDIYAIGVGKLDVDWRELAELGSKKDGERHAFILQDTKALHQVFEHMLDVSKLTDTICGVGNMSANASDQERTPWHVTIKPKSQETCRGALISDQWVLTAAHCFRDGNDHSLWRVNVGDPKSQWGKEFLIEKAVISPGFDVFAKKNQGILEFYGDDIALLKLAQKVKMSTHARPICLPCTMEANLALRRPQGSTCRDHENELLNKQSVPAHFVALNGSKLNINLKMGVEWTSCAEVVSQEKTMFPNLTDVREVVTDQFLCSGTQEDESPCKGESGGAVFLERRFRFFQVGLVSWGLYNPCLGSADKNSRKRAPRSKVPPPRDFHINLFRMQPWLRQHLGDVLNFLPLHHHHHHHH

Assay [2] has as its target T2, human C2 G466A (human, UniProt P06681 21-752).
T2 sequence: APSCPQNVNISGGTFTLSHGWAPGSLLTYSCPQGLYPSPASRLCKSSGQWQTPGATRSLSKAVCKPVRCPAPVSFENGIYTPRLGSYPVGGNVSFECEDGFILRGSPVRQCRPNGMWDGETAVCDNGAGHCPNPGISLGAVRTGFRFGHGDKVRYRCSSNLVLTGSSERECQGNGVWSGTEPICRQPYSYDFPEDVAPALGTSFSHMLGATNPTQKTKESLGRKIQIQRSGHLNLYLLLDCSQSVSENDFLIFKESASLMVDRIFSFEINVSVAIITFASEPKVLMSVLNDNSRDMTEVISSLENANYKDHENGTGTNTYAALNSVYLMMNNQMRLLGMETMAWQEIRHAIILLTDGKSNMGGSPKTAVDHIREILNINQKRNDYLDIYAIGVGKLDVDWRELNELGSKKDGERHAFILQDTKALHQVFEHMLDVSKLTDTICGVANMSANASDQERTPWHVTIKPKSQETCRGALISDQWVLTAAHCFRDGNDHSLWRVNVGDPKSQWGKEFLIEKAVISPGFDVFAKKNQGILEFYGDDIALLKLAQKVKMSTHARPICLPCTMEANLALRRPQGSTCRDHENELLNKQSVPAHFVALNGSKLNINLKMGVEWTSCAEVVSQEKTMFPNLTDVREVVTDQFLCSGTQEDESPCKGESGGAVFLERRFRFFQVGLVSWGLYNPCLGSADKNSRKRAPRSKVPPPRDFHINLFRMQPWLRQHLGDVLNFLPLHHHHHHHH

In assay [3] the target is T3, human C2 N403A (human, UniProt P06681 21-752).
T3 sequence: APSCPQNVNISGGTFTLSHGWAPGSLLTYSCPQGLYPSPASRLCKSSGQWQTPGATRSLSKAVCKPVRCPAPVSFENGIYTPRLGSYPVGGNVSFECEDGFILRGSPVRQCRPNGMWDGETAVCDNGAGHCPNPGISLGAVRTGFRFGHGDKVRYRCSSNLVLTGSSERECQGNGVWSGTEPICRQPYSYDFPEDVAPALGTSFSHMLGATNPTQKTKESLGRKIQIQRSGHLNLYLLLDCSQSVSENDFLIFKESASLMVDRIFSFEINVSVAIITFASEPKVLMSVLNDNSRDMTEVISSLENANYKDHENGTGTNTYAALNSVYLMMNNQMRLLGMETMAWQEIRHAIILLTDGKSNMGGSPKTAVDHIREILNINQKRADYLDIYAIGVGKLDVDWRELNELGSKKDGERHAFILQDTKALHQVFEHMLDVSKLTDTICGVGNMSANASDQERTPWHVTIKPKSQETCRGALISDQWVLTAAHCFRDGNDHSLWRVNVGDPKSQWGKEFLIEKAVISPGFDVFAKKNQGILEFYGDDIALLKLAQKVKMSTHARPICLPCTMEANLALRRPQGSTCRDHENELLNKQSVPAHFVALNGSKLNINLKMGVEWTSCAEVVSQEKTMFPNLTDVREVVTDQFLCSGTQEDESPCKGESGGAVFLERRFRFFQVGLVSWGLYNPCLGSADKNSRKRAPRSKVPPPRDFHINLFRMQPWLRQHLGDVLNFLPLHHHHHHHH

Assay [4] deals with T4, human C2 E324A (human, UniProt P06681 21-752).
T4 sequence: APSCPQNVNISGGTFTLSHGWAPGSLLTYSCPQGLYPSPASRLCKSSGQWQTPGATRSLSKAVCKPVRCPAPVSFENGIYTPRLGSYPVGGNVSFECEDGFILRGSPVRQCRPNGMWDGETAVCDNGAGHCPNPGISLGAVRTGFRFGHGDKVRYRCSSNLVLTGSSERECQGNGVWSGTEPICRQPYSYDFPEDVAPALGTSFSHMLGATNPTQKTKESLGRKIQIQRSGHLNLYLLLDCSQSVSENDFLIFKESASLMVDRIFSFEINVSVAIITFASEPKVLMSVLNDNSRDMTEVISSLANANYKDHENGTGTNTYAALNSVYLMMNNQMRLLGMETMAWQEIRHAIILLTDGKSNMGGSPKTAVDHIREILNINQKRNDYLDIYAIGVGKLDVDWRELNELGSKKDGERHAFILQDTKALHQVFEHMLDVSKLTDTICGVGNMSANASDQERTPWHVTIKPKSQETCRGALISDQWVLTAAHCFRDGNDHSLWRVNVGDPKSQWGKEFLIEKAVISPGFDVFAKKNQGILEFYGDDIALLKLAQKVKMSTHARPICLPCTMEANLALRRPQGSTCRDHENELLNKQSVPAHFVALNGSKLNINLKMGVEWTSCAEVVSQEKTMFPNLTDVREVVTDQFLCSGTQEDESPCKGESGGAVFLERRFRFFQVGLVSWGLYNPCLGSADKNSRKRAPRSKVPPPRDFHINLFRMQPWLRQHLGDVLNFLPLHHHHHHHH

B1: RF16-214 (antibody, V domains shown)
VH: EVQLLESGGGLVQPGGSLRLSCAASGFTFSWYQMMWVRQAPGKGLEWVSRIYPSGGGTAYADSVKGRFTISRDNSKNTLYLQMNSLRAEDTAVYYCARDAGYGDNWGQGTLVTVSS
VL: QSALTQPPSVSVSPGQTASITCSGDKLGEKYASWYQQKAGQSPVMVIYQDRKRPSGIPERFSGSNSGNTATLTISGTQAMDEADYYCQAWDTRAVVFGGGTKLTVLG
For the molecule B1, the Fold diff in assay [1] stood at 1 fold; in assay [2], 5 fold; in assay [3], 1 fold; in assay [4] it was 1 fold.
